The target of this experiment is T1, ADP339.
T1 chain: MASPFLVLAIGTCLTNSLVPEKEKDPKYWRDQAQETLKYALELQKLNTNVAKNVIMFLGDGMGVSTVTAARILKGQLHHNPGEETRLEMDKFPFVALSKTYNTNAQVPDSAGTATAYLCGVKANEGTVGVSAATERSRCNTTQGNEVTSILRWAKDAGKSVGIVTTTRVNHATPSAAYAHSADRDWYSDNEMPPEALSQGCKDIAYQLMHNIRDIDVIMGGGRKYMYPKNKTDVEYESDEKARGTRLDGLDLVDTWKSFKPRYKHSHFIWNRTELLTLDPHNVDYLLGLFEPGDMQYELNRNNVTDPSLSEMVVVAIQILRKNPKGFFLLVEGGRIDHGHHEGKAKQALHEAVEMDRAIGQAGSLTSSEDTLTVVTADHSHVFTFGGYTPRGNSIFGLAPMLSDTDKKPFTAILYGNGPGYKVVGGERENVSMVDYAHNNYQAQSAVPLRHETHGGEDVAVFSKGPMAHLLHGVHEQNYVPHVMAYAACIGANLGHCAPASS
The experiment in a line: AVEXIS screen signal:noise (double-corrected).

Experimental findings from PMC11098746 (2024) are described below.

B1: ADP246 (protein)
chain: GLCKPCTLENHYCEGGLESDITFNNKLIKGKFHTLPKKCPRGLGIPNIIKERNSINNCLCIHGKVQRTTENKNVECFPCPPNTFKENEYDNSCSGACPPFSTTFVGSSYENQCFCKNNYYLVSTDDENDANGNSINNNKNIYNNNNIYNNNNNNNNNNNNNFNNKADVKKKSCKICPIGAICNRGFNIYIYLKLLNDRSYNNINVIDHETPFPKYGYYAVYREKTNPAKSWDTLDDSAILNYVYPYHKLLLFIQKNIQKGNYFFLEKGNKFFLNDDFVEKMNEKSKYEEENANKFVTKSEIIHNVNTNNLKGKHNTLNNNNNNNNINKASSFLNQNNYNNDIIQLSSYENNPFKNLASTSEVSSNNNVISFIQNNDKTNNAANDNNIENLVDIFNKYVQEAKELQIQNRKFERIPDIHPCTIPNRCLGTLINLCSDGSTGYQCNNCAKNYDMSYFKSKCKKCQNLFYE
modifications: bait human Fc-tagged dimer; N-glycosylation sequons mutated in Plasmodium baits
B1: the binding score amounted to 15.5.

B2: ADP181 (protein)
chain: SSNDKNKINKNNMPLQRGASNLKDINIHNVEKKSNMESVNNNINNAACSKNLNANKVPNVAHTGVNKKGETKNEEVEKEENENEEIEKEEIENEENQQNEEDENEENQQNEEDENEENQQMNVNVDVSAEKKNKELPEEKKELQKNSEKNINKEVIKDSNKDNTFNFHKNINTAFNKNKNIYNNNNNNNNNNKAFIEKKEEAIDMKKTHCSNNNKMCKYNNMNNHMSTNKNNNQIFEESKQNVNKPIYNLKSLGNNAFKNDEKYNENDYKNNHDDDKKKYTDDSNEENIYEERNQKILLIHLLKNIKELLNRQRQNFNNFLSFLSENYQSYEKFYKSQKYQNGKNYIDKLDQQGELKNVAVVTHSFLDMSKAANGKKDKNGVFVKLMNDQNDDGDDTKDGDDTKDEDDHKNEDDHKNEDDHKNEDDHKNEDDHKNGDDNKNGDDHKNGDDNKNGDDDNGKKSHDISDIKNIIDTILQSDDITDEQKKYLEIIKKILDLEEDVLNKEKEQLQLNKNIIEVLMGKSDELRNIAVNLKNGNGDNEASQRVDLAQNIVSNLLNFAVQLKNTGNIVYNNIQGQGELLQSIEKNIDKAENDLKKSTSVNTAFTPKNVPNTEQNDQETQTDDDINDADIDENNNANDKNNCHMYKKNNCHMYKKNNCKKYFLNSHYNNYLCKKQKKYNKNDMGNKQKDNKKFKLNEAMKNHFYNIFVKETVMLKKLYKVLFELF
modifications: bait human Fc-tagged dimer; N-glycosylation sequons mutated in Plasmodium baits
B2 yielded a binding score of 6.19.
